# Data reported in the supplement of paper PMC10567573.
# B1: KLHL12 (parent)
# chain: LDYTADEDGVWYSVAPMNVRRGLA
# Variants of: B1
# Assay: protein stability index of a GFP-peptide fusion (GPS, HEK-293T) (PSI 1-6); higher = more stable
# Conditions: c terminus: a fixed tail appended
# 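Also: lentivirally expressed fusions sorted by FACS into six bins by GFP to DsRed ratio, PSI derived from sequencing read proportions per bin multiplied by bin number.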
row,Variant,protein stability index
1,LDYTADEDGVWYGVAPMNVRRGLA,2.69
2,LDYTADEDGVWYQVAPMNVRRGLA,2.06
3,LDYTADEDGVWYDVAPMNVRRGLA,3.34
4,LDYTADEDGVWYCVAPMNVRRGLA,1.97
5,LDYTADEDGVWYWVAPMNVRRGLA,1.37
6,LDYTADEDGVWYAVAPMNVRRGLA,1.71
7,LDYTADEDGVWYRVAPMNVRRGLA,1.94
8,LDYTADEDGVWYLVAPMNVRRGLA,1.89
9,LDYTADEDGVWYEVAPMNVRRGLA,2.77
10,LDYTADEDGVWYYVAPMNVRRGLA,2.21
11,LDYTADEDGVWYPVAPMNVRRGLA,2.57
12,LDYTADEDGVWYFVAPMNVRRGLA,2.6
13,LDYTADEDGVWYIVAPMNVRRGLA,1.43
14,LDYTADEDGVWYHVAPMNVRRGLA,3.65
15,LDYTADEDGVWYKVAPMNVRRGLA,2.29
16,LDYTADEDGVWYVVAPMNVRRGLA,2.28
17,LDYTADEDGVWYNVAPMNVRRGLA,2.13
18,LDYTADEDGVWYTVAPMNVRRGLA,1.92
19,LDYTADEDGVWYMVAPMNVRRGLA,1.92
20,LDYTADEGGVWYSVAPMNVRRGLA,1.74
21,LDYTADETGVWYSVAPMNVRRGLA,1.48
22,LDYTADEFGVWYSVAPMNVRRGLA,1.21
23,LDYTADEHGVWYSVAPMNVRRGLA,1.82
24,LDYTADESGVWYSVAPMNVRRGLA,2.69

row,Variant,protein stability index
1,LDYTADEEGVWYSVAPMNVRRGLA,2.79
2,LDYTADEAGVWYSVAPMNVRRGLA,1.67
3,LDYTADEVGVWYSVAPMNVRRGLA,1.6
4,LDYTADEKGVWYSVAPMNVRRGLA,2.24
5,LDYTADEYGVWYSVAPMNVRRGLA,2.23
6,LDYTADECGVWYSVAPMNVRRGLA,2.81
7,LDYTADELGVWYSVAPMNVRRGLA,1.73
8,LDYTADENGVWYSVAPMNVRRGLA,1.42
9,LDYTADERGVWYSVAPMNVRRGLA,1.56
10,LDYTADEMGVWYSVAPMNVRRGLA,1.93
11,LDYTADEQGVWYSVAPMNVRRGLA,2.49
12,LDYTADEPGVWYSVAPMNVRRGLA,2.26
13,LDYTADEIGVWYSVAPMNVRRGLA,1.96
14,LDYTADEWGVWYSVAPMNVRRGLA,2.1
15,LDYTADEDDVWYSVAPMNVRRGLA,2.63
16,LDYTADEDHVWYSVAPMNVRRGLA,2.2
17,LDYTADEDYVWYSVAPMNVRRGLA,2.37
18,LDYTADEDLVWYSVAPMNVRRGLA,1.61
19,LDYTADEDFVWYSVAPMNVRRGLA,1.99
20,LDYTADEDQVWYSVAPMNVRRGLA,2.21
21,LDYTADEDPVWYSVAPMNVRRGLA,2.75
22,LDYTADEDRVWYSVAPMNVRRGLA,1.75
23,LDYTADEDNVWYSVAPMNVRRGLA,2.5
24,LDYTADEDIVWYSVAPMNVRRGLA,1.88

row,Variant,protein stability index
1,LDYTADEDMVWYSVAPMNVRRGLA,2.26
2,LDYTADEDTVWYSVAPMNVRRGLA,2.15
3,LDYTADEDCVWYSVAPMNVRRGLA,1.47
4,LDYTADEDAVWYSVAPMNVRRGLA,2.17
5,LDYTADEDWVWYSVAPMNVRRGLA,1.94
6,LDYTADEDVVWYSVAPMNVRRGLA,1.82
7,LDYTADEDSVWYSVAPMNVRRGLA,2.03
8,LDYTADEDKVWYSVAPMNVRRGLA,1.75
9,LDYTADEDEVWYSVAPMNVRRGLA,2.33
10,LDYTADEDGVWFSVAPMNVRRGLA,2.23
11,LDYTADEDGVWSSVAPMNVRRGLA,3.12
12,LDYTADEDGVWGSVAPMNVRRGLA,2.84
13,LDYTADEDGVWMSVAPMNVRRGLA,2.36
14,LDYTADEDGVWTSVAPMNVRRGLA,3.12
15,LDYTADEDGVWLSVAPMNVRRGLA,2.02
16,LDYTADEDGVWRSVAPMNVRRGLA,3.37
17,LDYTADEDGVWCSVAPMNVRRGLA,3.07
18,LDYTADEDGVWNSVAPMNVRRGLA,3.45
19,LDYTADEDGVWDSVAPMNVRRGLA,3.74
20,LDYTADEDGVWPSVAPMNVRRGLA,3.52
21,LDYTADEDGVWASVAPMNVRRGLA,3.55
22,LDYTADEDGVWKSVAPMNVRRGLA,3.63
23,LDYTADEDGVWVSVAPMNVRRGLA,2.32
24,LDYTADEDGVWISVAPMNVRRGLA,1.89

row,Variant,protein stability index
1,LDYTADEDGVWHSVAPMNVRRGLA,3.24
2,LDYTADEDGVWESVAPMNVRRGLA,4.04
3,LDYTADEDGVWWSVAPMNVRRGLA,2.3
4,LDYTADEDGVWQSVAPMNVRRGLA,3.61
5,LDYTAQEDGVWYSVAPMNVRRGLA,1.7
6,LDYTAFEDGVWYSVAPMNVRRGLA,2.98
7,LDYTAHEDGVWYSVAPMNVRRGLA,1.85
8,LDYTAAEDGVWYSVAPMNVRRGLA,1.93
9,LDYTALEDGVWYSVAPMNVRRGLA,2.08
10,LDYTAREDGVWYSVAPMNVRRGLA,2.47
11,LDYTAIEDGVWYSVAPMNVRRGLA,1.4
12,LDYTASEDGVWYSVAPMNVRRGLA,1.91
13,LDYTANEDGVWYSVAPMNVRRGLA,1.27
14,LDYTAWEDGVWYSVAPMNVRRGLA,2.71
15,LDYTAPEDGVWYSVAPMNVRRGLA,2.46
16,LDYTAEEDGVWYSVAPMNVRRGLA,2.16
17,LDYTAVEDGVWYSVAPMNVRRGLA,1.99
18,LDYTATEDGVWYSVAPMNVRRGLA,1.91
19,LDYTAGEDGVWYSVAPMNVRRGLA,2.36
20,LDYTACEDGVWYSVAPMNVRRGLA,2.61
21,LDYTAMEDGVWYSVAPMNVRRGLA,2.18
22,LDYTAKEDGVWYSVAPMNVRRGLA,2.44
23,LDYTAYEDGVWYSVAPMNVRRGLA,1.51
24,LDYTQDEDGVWYSVAPMNVRRGLA,2.06

row,Variant,protein stability index
1,LDYTLDEDGVWYSVAPMNVRRGLA,1.29
2,LDYTWDEDGVWYSVAPMNVRRGLA,2.46
3,LDYTNDEDGVWYSVAPMNVRRGLA,2.19
4,LDYTHDEDGVWYSVAPMNVRRGLA,1.93
5,LDYTYDEDGVWYSVAPMNVRRGLA,2.6
6,LDYTFDEDGVWYSVAPMNVRRGLA,1.37
7,LDYTPDEDGVWYSVAPMNVRRGLA,2.23
8,LDYTRDEDGVWYSVAPMNVRRGLA,2.15
9,LDYTKDEDGVWYSVAPMNVRRGLA,2.35
10,LDYTTDEDGVWYSVAPMNVRRGLA,1.94
11,LDYTGDEDGVWYSVAPMNVRRGLA,2.08
12,LDYTSDEDGVWYSVAPMNVRRGLA,1.8
13,LDYTMDEDGVWYSVAPMNVRRGLA,2.05
14,LDYTIDEDGVWYSVAPMNVRRGLA,2.99
15,LDYTVDEDGVWYSVAPMNVRRGLA,2.02
16,LDYTADEDGVWYSVCPMNVRRGLA,1.74
17,LDYTADEDGLWYSVAPMNVRRGLA,3.09
18,LDYTADEDGNWYSVAPMNVRRGLA,3.06
19,LDYTADEDGWWYSVAPMNVRRGLA,1.63
20,LDYTADEDGTWYSVAPMNVRRGLA,2.82
21,LDYTADEDGHWYSVAPMNVRRGLA,2.44
22,LDYTADEDGGWYSVAPMNVRRGLA,3.38
23,LDYTADEDGAWYSVAPMNVRRGLA,3.22
24,LDYTADEDGPWYSVAPMNVRRGLA,2.47

row,Variant,protein stability index
1,LDYTADEDGKWYSVAPMNVRRGLA,3.18
2,LDYTADEDGEWYSVAPMNVRRGLA,3.37
3,LDYTADEDGSWYSVAPMNVRRGLA,2.2
4,LDYTADEDGYWYSVAPMNVRRGLA,2.44
5,LDYTADEDGCWYSVAPMNVRRGLA,2.44
6,LDYTADEDGRWYSVAPMNVRRGLA,2.7
7,LDYTADEDGQWYSVAPMNVRRGLA,2.99
8,LDYTADEDGIWYSVAPMNVRRGLA,1.84
9,LDYTADEDGMWYSVAPMNVRRGLA,2.32
10,LDYTADEDGFWYSVAPMNVRRGLA,1.86
11,LDYTADEDGDWYSVAPMNVRRGLA,3.36
12,LDYTADNDGVWYSVAPMNVRRGLA,2.09
13,LDYTADIDGVWYSVAPMNVRRGLA,2.43
14,LDYTADLDGVWYSVAPMNVRRGLA,2.79
15,LDYTADCDGVWYSVAPMNVRRGLA,1.65
16,LDYTADKDGVWYSVAPMNVRRGLA,2.01
17,LDYTADTDGVWYSVAPMNVRRGLA,1.64
18,LDYTADPDGVWYSVAPMNVRRGLA,2.02
19,LDYTADGDGVWYSVAPMNVRRGLA,1.7
20,LDYTADVDGVWYSVAPMNVRRGLA,1.44
21,LDYTADADGVWYSVAPMNVRRGLA,1.28
22,LDYTADRDGVWYSVAPMNVRRGLA,2.77
23,LDYTADDDGVWYSVAPMNVRRGLA,1.46
24,LDYTADSDGVWYSVAPMNVRRGLA,1.8

row,Variant,protein stability index
1,LDYTADHDGVWYSVAPMNVRRGLA,1.89
2,LDYTADFDGVWYSVAPMNVRRGLA,2.55
3,LDYTADWDGVWYSVAPMNVRRGLA,2.19
4,LDYTADYDGVWYSVAPMNVRRGLA,1.95
5,LDYTADQDGVWYSVAPMNVRRGLA,2.43
6,LDYTADMDGVWYSVAPMNVRRGLA,1.91
7,LDYTADEDGVWYSSAPMNVRRGLA,2.96
8,LDYTADEDGVWYSAAPMNVRRGLA,2.76
9,LDYTADEDGVWYSRAPMNVRRGLA,3.33
10,LDYTADEDGVWYSGAPMNVRRGLA,2.83
11,LDYTADEDGVWYSLAPMNVRRGLA,1.82
12,LDYTADEDGVWYSHAPMNVRRGLA,3.39
13,LDYTADEDGVWYSWAPMNVRRGLA,2
14,LDYTADEDGVWYSEAPMNVRRGLA,3.61
15,LDYTADEDGVWYSTAPMNVRRGLA,3
16,LDYTADEDGVWYSNAPMNVRRGLA,2.83
17,LDYTADEDGVWYSFAPMNVRRGLA,2.18
18,LDYTADEDGVWYSCAPMNVRRGLA,2.5
19,LDYTADEDGVWYSQAPMNVRRGLA,3.31
20,LDYTADEDGVWYSDAPMNVRRGLA,3.79
21,LDYTADEDGVWYSIAPMNVRRGLA,1.67
22,LDYTADEDGVWYSPAPMNVRRGLA,2.63
23,LDYTADEDGVWYSYAPMNVRRGLA,2.83
24,LDYTADEDGVWYSMAPMNVRRGLA,2.33

row,Variant,protein stability index
1,LDYTADEDGVWYSKAPMNVRRGLA,4.17
2,LDYTADEDGVTYSVAPMNVRRGLA,2.99
3,LDYTADEDGVFYSVAPMNVRRGLA,2.85
4,LDYTADEDGVDYSVAPMNVRRGLA,4.35
5,LDYTADEDGVKYSVAPMNVRRGLA,3.18
6,LDYTADEDGVCYSVAPMNVRRGLA,3.05
7,LDYTADEDGVPYSVAPMNVRRGLA,3.56
8,LDYTADEDGVQYSVAPMNVRRGLA,3.38
9,LDYTADEDGVMYSVAPMNVRRGLA,2.72
10,LDYTADEDGVIYSVAPMNVRRGLA,2.61
11,LDYTADEDGVVYSVAPMNVRRGLA,3.62
12,LDYTADEDGVNYSVAPMNVRRGLA,3.97
13,LDYTADEDGVEYSVAPMNVRRGLA,4.55
14,LDYTADEDGVLYSVAPMNVRRGLA,3.21
15,LDYTADEDGVAYSVAPMNVRRGLA,3.86
16,LDYTADEDGVGYSVAPMNVRRGLA,3.69
17,LDYTADEDGVRYSVAPMNVRRGLA,2.8
18,LDYTADEDGVSYSVAPMNVRRGLA,3.62
19,LDYTADEDGVYYSVAPMNVRRGLA,2.39
20,LDYTADEDGVHYSVAPMNVRRGLA,3.05
